According to IntAct's records for PubMed 19524572:

B1: Phototropin-1 (Arabidopsis thaliana (Mouse-ear cress)), O48963 (parent)
chain: MEPTEKPSTKPSSRTLPRDTRGSLEVFNPSTQLTRPDNPVFRPEPPAWQNLSDPRGTSPQPRPQQEPAPSNPVRSDQEIAVTTSWMALKDPSPETISKKTITAEKPQKSAVAAEQRAAEWGLVLKTDTKTGKPQGVGVRNSGGTENDPNGKKTTSQRNSQNSCRSSGEMSDGDVPGGRSGIPRVSEDLKDALSTFQQTFVVSDATKPDYPIMYASAGFFNMTGYTSKEVVGRNCRFLQGSGTDADELAKIRETLAAGNNYCGRILNYKKDGTSFWNLLTIAPIKDESGKVLKFIGMQVEVSKHTEGAKEKALRPNGLPESLIRYDARQKDMATNSVTELVEAVKRPRALSESTNLHPFMTKSESDELPKKPARRMSENVVPSGRRNSGGGRRNSMQRINEIPEKKSRKSSLSFMGIKKKSESLDESIDDGFIEYGEEDDEISDRDERPESVDDKVRQKEMRKGIDLATTLERIEKNFVITDPRLPDNPIIFASDSFLELTEYSREEILGRNCRFLQGPETDLTTVKKIRNAIDNQTEVTVQLINYTKSGKKFWNIFHLQPMRDQKGEVQYFIGVQLDGSKHVEPVRNVIEETAVKEGEDLVKKTAVNIDEAVRELPDANMTPEDLWANHSKVVHCKPHRKDSPPWIAIQKVLESGEPIGLKHFKPVKPLGSGDTGSVHLVELVGTDQLFAMKAMDKAVMLNRNKVHRARAEREILDLLDHPFLPALYASFQTKTHICLITDYYPGGELFMLLDRQPRKVLKEDAVRFYAAQVVVALEYLHCQGIIYRDLKPENVLIQGNGDISLSDFDLSCLTSCKPQLLIPSIDEKKKKKQQKSQQTPIFMAEPMRASNSFVGTEEYIAPEIISGAGHTSAVDWWALGILMYEMLYGYTPFRGKTRQKTFTNVLQKDLKFPASIPASLQVKQLIFRLLQRDPKKRLGCFEGANEVKQHSFFKGINWALIRCTNPPELETPIFSGEAENGEKVVDPELEDLQTNVF
partner: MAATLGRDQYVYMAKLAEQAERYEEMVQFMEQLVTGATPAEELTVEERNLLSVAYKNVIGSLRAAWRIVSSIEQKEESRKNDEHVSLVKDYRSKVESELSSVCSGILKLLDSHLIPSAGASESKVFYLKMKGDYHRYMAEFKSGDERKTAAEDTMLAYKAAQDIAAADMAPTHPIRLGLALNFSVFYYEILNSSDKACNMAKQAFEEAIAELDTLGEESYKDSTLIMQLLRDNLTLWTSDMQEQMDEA
B2: Phototropin-1 (Arabidopsis thaliana (Mouse-ear cress)), O48963 (parent)
chain: B1 chain
partner: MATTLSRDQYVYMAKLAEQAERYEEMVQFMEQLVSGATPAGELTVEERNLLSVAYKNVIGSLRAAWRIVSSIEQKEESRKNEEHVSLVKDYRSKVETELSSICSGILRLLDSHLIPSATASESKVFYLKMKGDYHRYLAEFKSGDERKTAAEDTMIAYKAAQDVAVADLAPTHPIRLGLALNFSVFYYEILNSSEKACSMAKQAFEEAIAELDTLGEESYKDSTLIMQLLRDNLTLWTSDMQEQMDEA

Variants of: B1
Conditions: with 14336_arath GRF6, P48349

effect of a mutation on the interaction | Variant
decreasing interaction | S376A

Variants of: B1
Conditions: with 14336_arath GRF6, P48349
Remark: another data set of the same source

effect of a mutation on the interaction | Variant
disrupting interaction | S376A
disrupting interaction | S350A

Variants of: B1
Conditions: with 14336_arath GRF6, P48349
Remark: another data set of the same source

effect of a mutation on the interaction | Variant
decreasing interaction | S350A

Variants of: B1
Conditions: with 14336_arath GRF6, P48349
Remark: another data set of the same source

effect of a mutation on the interaction | Variant
disrupting interaction | S410A

Variants of: B2
Conditions: with 14338_arath GRF8, P48348

effect of a mutation on the interaction | Variant
disrupting interaction | S376A
disrupting interaction | S410A
disrupting interaction | S350A
